The record followed here is patent US5624818, “Nucleic acids encoding regulatory proteins that dimerize with Mad or Max” (Fred Hutchinson Cancer Research Center).

One data set has as its target Mad-1-His6 full length (Homo sapiens, UniProt Q05195 SEQ:1-221). In words: EMSA; no Max present. To be noted: tags: C-terminal His6 (pET11D); label: 32P. A general note: In EMSA bound probe runs differently from free probe, usually more slowly.
The next data set concerns the target c-Myc:Max heterodimer (Homo sapiens, UniProt P01106-1;P61244-2 P01106-1:1-439,P61244-2:1-151). Kind of data set: EMSA; supershifted by anti-Myc and anti-Max; 3 mM MgCl2, 50 mM KCl, RT; 5-fold excess cold CM-1 competes. As to conditions: label: 32P.
Another data set has as its target c-Myc deltaN100:Max (Homo sapiens, UniProt P01106-1;P61244-2 P01106-1:101-439,P61244-2:1-151, c-Myc deletion of N-terminal 100 aa). In words: EMSA. To be noted: label: 32P.
Data set [1] deals with GST-C92Myc:Max heterodimer (Homo sapiens, UniProt P01106;P61244-2 P01106:363-454,P61244-2:1-151). Kind of data set: EMSA; heterodimer favored over Max:Max. To be noted: tags: GST on Myc; label: 32P.
Sequence of GST-C92Myc:Max heterodimer (P01106 363-454, chain 1 of 2): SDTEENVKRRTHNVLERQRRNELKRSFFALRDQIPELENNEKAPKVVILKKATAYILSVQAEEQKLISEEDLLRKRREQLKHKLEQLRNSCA
Sequence of GST-C92Myc:Max heterodimer (P61244 other isoform, or with tags, fused parts or gaps, chain 2 of 2): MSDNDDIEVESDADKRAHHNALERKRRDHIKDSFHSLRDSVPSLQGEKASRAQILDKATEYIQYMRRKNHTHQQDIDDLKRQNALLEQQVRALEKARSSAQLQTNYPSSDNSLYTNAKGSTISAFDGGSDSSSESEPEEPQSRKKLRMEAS
Description: The ability of Mad-1 to bind DNA and interact with Max and Myc was examined by the electrophoretic mobility shift assay. […] Non-fusion GST protein was used as a control. […] As a control, the specificity of the electrophoretic mobility shift was assayed by including antibodies to either Max (αMax), GST (αGST), or Myc (αMyc) to the binding reaction. The activity of these antibodies was inhibited by adding the appropriate immunoglobulin to the binding reaction ("+block"). The lanes marked "–" had no additional protein present in the binding reaction.
The ability of Mad-1 to bind DNA and interact with Max and Myc was examined by the EMSA. […] In each experiment the specificity of the mobility shift was assayed by including antibodies to either Max((xMax), GST((xGST) or Myc ((xMyc) were added to the binding reaction.

Sequence of Mad-1-His6 full length (Q05195 whole entry): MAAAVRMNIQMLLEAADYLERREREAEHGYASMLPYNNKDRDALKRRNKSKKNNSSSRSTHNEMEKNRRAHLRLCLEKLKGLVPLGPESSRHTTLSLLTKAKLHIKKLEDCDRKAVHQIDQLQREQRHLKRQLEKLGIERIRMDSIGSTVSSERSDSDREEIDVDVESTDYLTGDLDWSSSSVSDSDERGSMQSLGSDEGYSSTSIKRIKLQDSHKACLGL
Sequence of c-Myc deltaN100:Max (P01106 116-454, stated change not applied, chain 1 of 2): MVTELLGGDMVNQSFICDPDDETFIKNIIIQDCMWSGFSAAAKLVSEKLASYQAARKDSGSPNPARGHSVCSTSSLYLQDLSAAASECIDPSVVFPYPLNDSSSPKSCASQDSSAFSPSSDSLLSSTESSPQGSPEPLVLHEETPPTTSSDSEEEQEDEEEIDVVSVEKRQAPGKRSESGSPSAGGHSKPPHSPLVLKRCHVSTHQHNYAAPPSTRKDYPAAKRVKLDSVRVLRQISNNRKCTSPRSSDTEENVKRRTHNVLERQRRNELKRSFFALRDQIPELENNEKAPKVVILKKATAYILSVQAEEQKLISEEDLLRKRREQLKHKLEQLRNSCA
Sequence of c-Myc deltaN100:Max (P61244 other isoform, or with tags, fused parts or gaps c-Myc deletion of N-terminal 100 aa | mutant, chain 2 of 2): as the sequence (P61244 other isoform, or with tags, fused parts or gaps, chain 2 of 2) above
Sequence of c-Myc:Max heterodimer (P01106 16-454, chain 1 of 2): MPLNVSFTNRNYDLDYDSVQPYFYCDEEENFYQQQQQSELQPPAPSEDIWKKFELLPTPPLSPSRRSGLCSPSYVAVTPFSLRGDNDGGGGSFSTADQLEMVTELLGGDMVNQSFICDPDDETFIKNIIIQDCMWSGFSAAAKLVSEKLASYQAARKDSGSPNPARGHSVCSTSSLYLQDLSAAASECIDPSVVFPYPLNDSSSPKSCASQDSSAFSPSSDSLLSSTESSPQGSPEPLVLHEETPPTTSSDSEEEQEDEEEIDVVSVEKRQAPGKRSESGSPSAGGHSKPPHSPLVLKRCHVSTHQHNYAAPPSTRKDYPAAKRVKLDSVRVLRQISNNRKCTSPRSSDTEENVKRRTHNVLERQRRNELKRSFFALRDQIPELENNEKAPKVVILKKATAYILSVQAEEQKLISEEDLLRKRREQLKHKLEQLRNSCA
Sequence of c-Myc:Max heterodimer (P61244 other isoform, or with tags, fused parts or gaps, chain 2 of 2): as the sequence (P61244 other isoform, or with tags, fused parts or gaps, chain 2 of 2) above
Description for c-Myc deltaN100:Max: FIG. 7A: the ability of in vitro translated Myc and Max proteins to bind to the CM-1 oligonucleotide (CACGTG core consensus) was assessed by electrophoretic mobility shift assay. […] Lysates were incubated with ^32P-labeled CM-1 prior to resolution in a 5 percent acrylamide gel. In experiments where antibodies were added, affinity purified antibody (1 mg) was added after formation of the nucleoprotein complex to minimize steric interference. To block the antibody effect, cognate immunogen (1 mg) was added. […] CM-1 oligonucleotide alone (probe) and unprogrammed reticulocyte lysate (RL) served as background controls. FIG. 7B: The specificity of the Myc-Max shift was tested by competition with 5-, 50-, and 500-fold excess of unlabeled oligonucleotide. […] FIG. 7C: Requirements for the formation of a nucleoprotein complex. Various c-Myc mutants (see FIG. 4 discussion for abbreviations) were assayed for their ability to bind CM-1 in association with Max.
To ascertain whether the association of Myc and Max in a nucleoprotein complex required the same sequences, some of the c-Myc mutants were examined for their ability to bind to CM-1 in a complex with Max.
Description for c-Myc:Max heterodimer: The DNA-binding reaction was allowed to proceed at room temperature for 10 minutes.
FIG. 7A: the ability of in vitro translated Myc and Max proteins to bind to the CM-1 oligonucleotide (CACGTG core consensus) was assessed by electrophoretic mobility shift assay. […] Lysates were incubated with ^32P-labeled CM-1 prior to resolution in a 5 percent acrylamide gel. In experiments where antibodies were added, affinity purified antibody (1 mg) was added after formation of the nucleoprotein complex to minimize steric interference. To block the antibody effect, cognate immunogen (1 mg) was added.

B1: CM-1 (dsDNA)
DNA 1: CCCCCACCACGTGGTGCCTGA
DNA 2: TCAGGCACCACGTGGTGGGGG
For B1, the binding result is recorded as “no binding” with Mad-1-His6 full length, “binds” with c-Myc:Max heterodimer, “binds” with c-Myc deltaN100:Max and “binds” in data set [1].
